Test results from the supplement of paper PMC7877785.
± gives the uncertainty stated by the source.

Test: self-splicing fitness, log relative to wild type (ln ratio); higher = more splicing; Tetrahymena group I intron in knt gene, E. coli kanamycin selection, DiMSum; sequences stand for … in CUCUCU…GGAGGGAAAAGUUAUCAGGCAUGCACCUGGUAGCUAGUCUUUAAACCAAUAGAUUGCAUCGGUUUAAAAGGCAAGACCGUCAAAUUGCGGGAAAGGGGUCAACAGCCGUUCAGUACCAAGUCUCAGGGGAAACUUUGAGAUGGCCUUGCAAAGGGUAUGGUAAUAAGCUGACGGACAUGGUCCUAACCACGCAGCCAAGUCCUAAGUCAACAGAUCUUCUGUUGAUAUGGAUGCAGUUCACAGACUAAAUGUCGGUCGGGGAAGAUGUAUUCUUCUCAUAAGAUAUAGUCGGACCUCUCCUUAAUGGGAGCUAGCGGAUGAAGUGAUGCAACACUGGAGCCGCUGGGAACUAAUUUGUAUGCGAAAGUAUAUUGAUUAGUUUUGGAGUACUCGUGGUCG
Method in brief: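 The eight P1ex-region nucleotides of an intron in the knt kanamycin-resistance gene on pET-22b(+) were all randomised and the library put into E. coli BL21(DE3). Six replicate transformations were grown overnight at 37°C or 30°C on LB agar with or without 25 μg/mL kanamycin, together with 100 μg/mL carbenicillin, 50 μM IPTG and 0.2% rhamnose. Colonies were pooled and amplicon-sequenced on an Illumina HiSeq 2500. Fitness from DiMSum is the error-weighted combination of wild-type-normalised replicate fold changes, kanamycin over none.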

Sequence	self-splicing fitness (ln) (30 °C)	self-splicing fitness (ln) (37 °C)
UUCUAGCAAUAUUACGGAUC	-2.3 ± 0.21	-0.989 ± 0.31
AUCGAGCAAUAUUACGCCUG	-3.45 ± 0.36	-1.78 ± 0.22
UAGCAGCAAUAUUACGCGAU	-2.94 ± 0.2	-3.07 ± 0.35
GCCUAGCAAUAUUACGCCCC	-0.575 ± 0.27	0.517 ± 0.49
CAAUAGCAAUAUUACGAUUU	-2.3 ± 0.091	-0.775 ± 0.084
ACUGAGCAAUAUUACGUUUC	-3.19 ± 0.27	-2.6 ± 0.23
UCGCAGCAAUAUUACGGUGU		-2.63 ± 0.24
AAGCAGCAAUAUUACGGCUU	-3.42 ± 0.14	-0.925 ± 0.12
UAGAAGCAAUAUUACGGGUG	-0.989 ± 0.057	-0.365 ± 0.078
GUUAAGCAAUAUUACGACCU	-0.481 ± 0.14	-0.37 ± 0.2
GCGCAGCAAUAUUACGAAAC	-0.473 ± 0.16	-0.354 ± 0.19
CGCCAGCAAUAUUACGUUAC	-1.91 ± 0.22	-3.49 ± 0.31
CAUAAGCAAUAUUACGCUGC	-3.86 ± 0.21	-3.23 ± 0.3
GUCAAGCAAUAUUACGCUUU	-2.41 ± 0.21	-1.73 ± 0.16
UAAUAGCAAUAUUACGUUGG	-3.11 ± 0.13	-0.991 ± 0.11
CCCAAGCAAUAUUACGAGGU	-3.16 ± 0.091	-2.08 ± 0.086
CUCCAGCAAUAUUACGCGGA	-3.39 ± 0.2	-3.02 ± 0.22
AUGCAGCAAUAUUACGCUAG	-3.93 ± 0.26	-2.49 ± 0.23
UAGUAGCAAUAUUACGCGUA	-1.53 ± 0.25	-1.94 ± 0.17
GAGUAGCAAUAUUACGCUUA	-1.45 ± 0.13	-0.422 ± 0.12
AUUCAGCAAUAUUACGGCUC	-0.786 ± 0.081	-0.0849 ± 0.1
CUUAAGCAAUAUUACGGAAU	-3.96 ± 0.31	-2.29 ± 0.31
ACAGAGCAAUAUUACGGAUA	-3.19 ± 0.45	
GACUAGCAAUAUUACGCAGU	-3.21 ± 0.31	-2.17 ± 0.2
UUUAAGCAAUAUUACGCUCG	-0.577 ± 0.095	0.0454 ± 0.11

Sequence	self-splicing fitness (ln) (30 °C)	self-splicing fitness (ln) (37 °C)
CCAGAGCAAUAUUACGUCUG	-3.53 ± 0.2	-1.63 ± 0.14
ACGUAGCAAUAUUACGUCCA	-1.02 ± 0.14	-1.13 ± 0.15
CCCAAGCAAUAUUACGAAGG	-3.19 ± 0.17	-2.42 ± 0.17
UGAAAGCAAUAUUACGACAG	-0.875 ± 0.1	-0.652 ± 0.13
AAUCAGCAAUAUUACGUACU	0.336 ± 0.084	0.692 ± 0.11
AAAAAGCAAUAUUACGACGG	-1.76 ± 0.17	-1.12 ± 0.21
CACAAGCAAUAUUACGCUUA	-2.27 ± 0.13	-2.15 ± 0.13
UGCUAGCAAUAUUACGUCGU	-2.15 ± 0.14	-3.03 ± 0.31
UCCCAGCAAUAUUACGCAAC	-3.01 ± 0.37	-2.19 ± 0.37
CCCUAGCAAUAUUACGAACG	-3 ± 0.21	-2.59 ± 0.29
UACAAGCAAUAUUACGCGGU	-3.61 ± 0.16	-2.61 ± 0.18
GGCUAGCAAUAUUACGUCCC		-0.484 ± 0.43
AUUUAGCAAUAUUACGGGCU	-2.71 ± 0.19	-0.78 ± 0.16
CUUAAGCAAUAUUACGGAUU	-3.94 ± 0.32	-3.41 ± 0.47
AGGAAGCAAUAUUACGCGCU	-1.01 ± 0.13	-0.788 ± 0.17
CGUUAGCAAUAUUACGCUCU	-1.56 ± 0.14	-1.07 ± 0.17
CUGCAGCAAUAUUACGUUGA	-3.42 ± 0.2	-3.21 ± 0.24
GUUAAGCAAUAUUACGCUUU	-4.08 ± 0.43	-0.79 ± 0.22
AGUCAGCAAUAUUACGGUUG	-2.76 ± 0.12	-2.8 ± 0.17
CUUAAGCAAUAUUACGAUUA	-3.71 ± 0.26	-2.72 ± 0.21
AUGCAGCAAUAUUACGCAGG	-3.71 ± 0.14	-2.13 ± 0.12
GUGCAGCAAUAUUACGGUGA	-0.753 ± 0.095	0.095 ± 0.12
GCAAAGCAAUAUUACGCAUG	-3.61 ± 0.22	-2.97 ± 0.27
AUGAAGCAAUAUUACGACCU	0.893 ± 0.14	1.08 ± 0.15
CGGAAGCAAUAUUACGUACC	-2.22 ± 0.066	-0.907 ± 0.085

Sequence	self-splicing fitness (ln) (30 °C)	self-splicing fitness (ln) (37 °C)
AUCUAGCAAUAUUACGGGAC	-2.44 ± 0.17	-1.03 ± 0.13
GCAGAGCAAUAUUACGUUCA	-2.06 ± 0.13	-0.713 ± 0.1
AUUUAGCAAUAUUACGUAUU	-3 ± 0.16	-1.47 ± 0.19
GGAGAGCAAUAUUACGCUUG	-3.1 ± 0.16	-2.01 ± 0.21
CGCAAGCAAUAUUACGUUAC	-4 ± 0.22	-3.23 ± 0.27
GCCAAGCAAUAUUACGAUAG	-3.28 ± 0.36	-2.43 ± 0.25
CCGUAGCAAUAUUACGCUUU	-3.52 ± 0.43	-2.23 ± 0.49
CAGAAGCAAUAUUACGGCAA	-2.48 ± 0.22	-1.25 ± 0.19
CGGAAGCAAUAUUACGCGGG	-1.64 ± 0.16	-1.35 ± 0.18
AGUUAGCAAUAUUACGGAUC	-1.01 ± 0.13	-1.09 ± 0.18
AAGGAGCAAUAUUACGUUGA	-3.47 ± 0.23	-2.52 ± 0.19
CCGGAGCAAUAUUACGUCGC	-2.63 ± 0.32	-2.43 ± 0.41
GCCUAGCAAUAUUACGUAGA	-1.73 ± 0.16	0.22 ± 0.13
UUCAAGCAAUAUUACGAGGC	-1.97 ± 0.21	-1.76 ± 0.23
UUCAAGCAAUAUUACGAGUU	-2.6 ± 0.12	-0.389 ± 0.099
CCCCAGCAAUAUUACGGCAU	-3.43 ± 0.14	-2.42 ± 0.14
UAAGAGCAAUAUUACGAAAG	-3.88 ± 0.31	-1.92 ± 0.23
AAGUAGCAAUAUUACGCGAU	-3.2 ± 0.16	-2.19 ± 0.15
GGUGAGCAAUAUUACGUAUU	-1.96 ± 0.31	-1.94 ± 0.47
CUCAAGCAAUAUUACGCGAU	-2.3 ± 0.11	-0.996 ± 0.11
GGGUAGCAAUAUUACGCAGG		-2.34 ± 0.25
AUGUAGCAAUAUUACGACAU	-1.39 ± 0.014	-0.557 ± 0.033
ACGCAGCAAUAUUACGUUGA	-1.43 ± 0.11	-1.73 ± 0.11
UCGAAGCAAUAUUACGCGAG	-1.47 ± 0.074	-0.905 ± 0.1
CCCUAGCAAUAUUACGGCAA	-3.66 ± 0.22	-3.15 ± 0.18

Sequence	self-splicing fitness (ln) (30 °C)	self-splicing fitness (ln) (37 °C)
AAUCAGCAAUAUUACGUUGC	-3.97 ± 0.23	-3.16 ± 0.22
UGAUAGCAAUAUUACGAUAU	-2.94 ± 0.2	-2.12 ± 0.21
ACAGAGCAAUAUUACGCCCU	-3.23 ± 0.23	-2.02 ± 0.3
CAUCAGCAAUAUUACGCGCC	-2.74 ± 0.27	-1.05 ± 0.27
CACUAGCAAUAUUACGUGUC	-3.71 ± 0.14	-2.93 ± 0.15
CCAAAGCAAUAUUACGGUGC	-4.01 ± 0.16	-2.19 ± 0.13
AGCCAGCAAUAUUACGCCGA		-0.449 ± 0.29
UGUGAGCAAUAUUACGGGCG	-0.245 ± 0.1	0.233 ± 0.16
CGAGAGCAAUAUUACGAAAU	-2.81 ± 0.24	-2.97 ± 0.37
UCUGAGCAAUAUUACGGCAG	-1.8 ± 0.097	-0.992 ± 0.12
GGCCAGCAAUAUUACGCCUU	-2.04 ± 0.12	-0.815 ± 0.097
GCCAAGCAAUAUUACGCACU	-0.915 ± 0.077	-0.196 ± 0.097
GCUGAGCAAUAUUACGCCUG	-1.28 ± 0.23	
GUGCAGCAAUAUUACGGGUC	-2.38 ± 0.13	-0.803 ± 0.14
CUUGAGCAAUAUUACGUCAC	-3.37 ± 0.23	-2.73 ± 0.31
UGUAAGCAAUAUUACGUUUA	-0.814 ± 0.16	-1.51 ± 0.14
GUAAAGCAAUAUUACGUAAU	-1.58 ± 0.073	-0.314 ± 0.098
AAGGAGCAAUAUUACGGGCC	-2.98 ± 0.37	-2.27 ± 0.45
UACUAGCAAUAUUACGACAC	-2.53 ± 0.2	-0.604 ± 0.15
CAAUAGCAAUAUUACGGCAA	-3.51 ± 0.38	-1.11 ± 0.22
CGCCAGCAAUAUUACGUCGC	-3.23 ± 0.16	-2.11 ± 0.2
ACGUAGCAAUAUUACGGACC	-1.21 ± 0.16	-0.314 ± 0.2
